Residue numbers refer to the chain shown, from its start.
B1: nanobody B4 (VHH)
VHH: QVQLQESGGGLVQPGGSLRLSCAASGFTLDYYGIGWFRQAPGKEREGVSCISSSDGSTYYADSVKGRFTISRDNAKNTVYLQMNSLKPEDTAVYYCAADLTGIGCTTAQAMGVIGDFGDFGSWGQGTQVTVSS
B2: nanobody E11 (VHH)
VHH: B1 VHH with L29S, S49A, F68S, T101S, G112D
B3: nanobody A10 (VHH)
VHH: QVQLQESGGGLVQAGSSLRLSCAASGGTFSNYAMGWFRQAPGKEREFVAAIGWSGGTYYTDSVEGRFTISRDNAKNTVYLQMNSLKPEDTAVYYCAAKRSGSSWSERGYDYWGQGTQVTVSS
B4: nanobody D11 (VHH)
VHH: B3 VHH with G27R, N31S, K75E, R99A
B5: nanobody F5 (VHH)
VHH: QVQLQESGGGLVQPGGSLRLSCAASGFTLDRYAIGWFRQAPGKEREGVSCISSSDGSTYYADSVKGRFTISRDNAKNTVYLQMNSLKPEDTAVYYCARDHGPCTVLADILYDYGMDYWGKGTQVTVSS
B6: nanobody A11 (VHH)
VHH: QVQLQESGGGLVQPGESLRLSCAASGRTSSSYAMGWFRQAPGKEREFVASISWSGGSTYYADSVKGRFTLSRDNAKNTVYLQMNSLKPEDTAVYYCAADGIFYSDYPLSVDDFHSWGQGTQVTVSS
B7: nanobody G2 (VHH)
VHH: QVQLQESGGGLVQAGGSLRLSCAASGRTFSNYFMGWFRQAPGKEREFVAAVSWSGGSTYYADSVKGRLTISRDNAKNTVYLQMNSLKPEDTAVYYCAAGERYFPMEPRRGYDYWGQGTQVTVSS
B8: nanobody E1 (VHH)
VHH: QVQLQESGGGLVQPGGSLRLSCAASGRTFSSYFMGWFRQAPGKGRVFVASISWSGGSTYYADSVKGRFTISRDNAENTVYLQMNSLKPEDTAVYYCAAGTRATPLDWASGMDYWGKGTQVTVSS
B9: nanobody G5 (VHH)
VHH: QVQLQESGGGLVQAGGSLRLSCAASGRTFNDYAMYWFRQAPGKEREFVADITWSGSSTYYADSVKGRFTISRDNAKNTVFLQMNSLKPEDTALYYCAADSRYYGIGIGTPRYWGQGTQVTVSS
B10: nanobody F10 (VHH)
VHH: QVQLQESGGGLVQAGGSLRLSCAASGRTFSDYFMGWFRQAPGKEREFVAAVSWSGGSTYYADSVKGRFTISRDNAKNTVFLQMNSLKPEDTAVYYCAGGGSYYPMSPYDGMDYWGKGTQVTVSS
B11: nanobody D6 (VHH)
VHH: B10 VHH with G16D, D31S, V51I, A75V, F80Y, K87E, T91A, Y108R, D109N
B12: nanobody D1 (VHH)
VHH: QVQLQESGGGLVQAGDSLRLSCTASGRTFSNHAMGWFRQAPGKEREIVAVIFGTGRNSWYVDSVKGRFTISRDNAKNTVALQMNRLKPEDTAVYYCASGRTWYSGSSMAEYDYWGQGTQVTVSS
B13: F10-Fc (Fc fusion)
chain: B10 VHH
B14: F5-Fc (Fc fusion)
chain: B5 VHH

Target: T1, Pfs230 D1 (aa 587–731) (Plasmodium falciparum, UniProt P68874 587-731)
T1 chain: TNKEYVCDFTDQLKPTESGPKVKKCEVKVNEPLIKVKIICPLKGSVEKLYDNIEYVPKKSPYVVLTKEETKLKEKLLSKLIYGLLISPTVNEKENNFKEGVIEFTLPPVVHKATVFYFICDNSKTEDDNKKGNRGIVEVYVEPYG
Assay: BLI; representative curve

| Binder | Kd |
| --- | --- |
| B1 | 2 nM |
| B2 | 3.16 nM |
| B3 | 4.56 nM |
| B4 | 10.8 nM |
| B5 | 1.01 nM |
| B6 | 1.47 nM |
| B7 | 0.36 nM |
| B8 | 0.43 nM |
| B9 | 3.25 nM |
| B10 | 0.26 nM |
| B11 | 0.79 nM |
| B12 | 0.29 nM |

Target: T2, Pfs230 D1D2 (aa 587–889) (Plasmodium falciparum, UniProt P68874 587-889)
T2 chain: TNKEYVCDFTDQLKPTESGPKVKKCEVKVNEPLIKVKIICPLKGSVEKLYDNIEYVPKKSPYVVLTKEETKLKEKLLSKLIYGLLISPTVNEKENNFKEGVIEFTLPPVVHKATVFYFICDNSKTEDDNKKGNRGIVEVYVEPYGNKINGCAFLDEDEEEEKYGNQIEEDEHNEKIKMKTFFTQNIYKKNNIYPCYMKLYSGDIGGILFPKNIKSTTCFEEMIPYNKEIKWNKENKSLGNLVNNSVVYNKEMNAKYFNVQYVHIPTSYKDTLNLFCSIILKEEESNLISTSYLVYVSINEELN
Assay: BLI; representative curve

| Binder | Kd |
| --- | --- |
| B1 | 4.62 nM |
| B2 | 2.4 nM |
| B3 | 5.5 nM |
| B4 | 15.5 nM |
| B5 | 1.13 nM |
| B6 | 1.25 nM |
| B7 | 1.07 nM |
| B8 | 3.58 nM |
| B9 | 8.18 nM |
| B10 | 0.4 nM |
| B11 | 0.51 nM |

Target: T1, Pfs230 D1 (aa 587–731)
Assay: BLI

| Binder | Kd |
| --- | --- |
| B1 | 1.71 nM |
| B2 | 2.61 nM |
| B3 | 3.18 nM |
| B4 | 8.31 nM |
| B5 | 0.81 nM |
| B6 | 1.56 nM |
| B7 | 0.49 nM |
| B8 | 0.75 nM |
| B9 | 3.36 nM |
| B10 | 0.12 nM |
| B11 | 0.39 nM |
| B12 | 0.14 nM |

Target: T2, Pfs230 D1D2 (aa 587–889)
Assay: BLI

| Binder | Kd |
| --- | --- |
| B1 | 4.8 nM |
| B2 | 2.54 nM |
| B3 | 5.87 nM |
| B4 | 16.1 nM |
| B5 | 1.22 nM |
| B6 | 1.43 nM |
| B7 | 1.11 nM |
| B8 | 3.91 nM |
| B9 | 9.09 nM |
| B10 | 0.45 nM |
| B11 | 0.63 nM |

Target: T3, Pfs230 Pro-D1D2 (aa 532–889) (Plasmodium falciparum, UniProt P68874 532-889)
T3 chain: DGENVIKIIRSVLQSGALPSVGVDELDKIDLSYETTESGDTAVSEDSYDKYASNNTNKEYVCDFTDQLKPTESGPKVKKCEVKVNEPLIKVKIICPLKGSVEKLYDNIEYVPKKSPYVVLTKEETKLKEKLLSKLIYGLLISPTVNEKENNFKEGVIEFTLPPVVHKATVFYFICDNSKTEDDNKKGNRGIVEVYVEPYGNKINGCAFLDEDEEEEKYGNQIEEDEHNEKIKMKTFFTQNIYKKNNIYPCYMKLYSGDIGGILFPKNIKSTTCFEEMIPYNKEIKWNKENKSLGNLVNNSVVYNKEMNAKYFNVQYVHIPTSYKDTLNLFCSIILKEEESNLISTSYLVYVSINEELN
Assay: BLI; only three curves fitted

| Binder | koff |
| --- | --- |
| B13 | 0.00171 s⁻¹ |

Target: T1, Pfs230 D1 (aa 587–731)
Assay: BLI
Remark: another data set of the same source

| Binder | koff |
| --- | --- |
| B1 | 0.00138 s⁻¹ |
| B2 | 0.000539 s⁻¹ |
| B3 | 0.000788 s⁻¹ |
| B4 | 0.00256 s⁻¹ |
| B5 | 0.000316 s⁻¹ |
| B6 | 0.00039 s⁻¹ |
| B7 | 0.000179 s⁻¹ |
| B8 | 0.00019 s⁻¹ |
| B9 | 0.000635 s⁻¹ |
| B10 | 4.8e-05 s⁻¹ |
| B11 | 0.000158 s⁻¹ |
| B12 | 3.72e-05 s⁻¹ |

Target: T2, Pfs230 D1D2 (aa 587–889)
Assay: BLI
Remark: another data set of the same source

| Binder | koff |
| --- | --- |
| B1 | 0.00152 s⁻¹ |
| B2 | 0.000733 s⁻¹ |
| B3 | 0.000805 s⁻¹ |
| B4 | 0.00262 s⁻¹ |
| B5 | 0.000313 s⁻¹ |
| B6 | 0.000152 s⁻¹ |
| B7 | 0.00016 s⁻¹ |
| B8 | 0.000409 s⁻¹ |
| B9 | 0.000579 s⁻¹ |
| B10 | 8.19e-05 s⁻¹ |
| B11 | 0.000108 s⁻¹ |

Target: T2, Pfs230 D1D2 (aa 587–889)
Assay: BLI; representative curve
Remark: another data set of the same source

| Binder | Kd |
| --- | --- |
| B14 | 0.66 nM |

Target: T3, Pfs230 Pro-D1D2 (aa 532–889)
Assay: BLI; representative curve; only three curves fitted

| Binder | Kd |
| --- | --- |
| B13 | 446 nM |

Target: T2, Pfs230 D1D2 (aa 587–889)
Assay: BLI
Remark: another data set of the same source

| Binder | koff |
| --- | --- |
| B14 | 0.000351 s⁻¹ |
| B13 | 3.99e-05 s⁻¹ |

Target: T3, Pfs230 Pro-D1D2 (aa 532–889)
Assay: BLI

| Binder | koff |
| --- | --- |
| B14 | 0.000644 s⁻¹ |

Source: article PMC9788556 (2022)
